Data: article PMC3725505

Columns and labels:
[1] = biological target: Kelch domain of human Keap1 (residues 321-609) (human) (UniProt Q14145); test: ITC
[2] = biological target: Keap1 (Kelch domain) Kelch domain, 321-609 (UniProt Q14145); test: isothermal titration calorimetry; conditions: reference: unphosphorylated WTX 20-mer peptide; sites S286

Kelch domain of human Keap1 (residues 321-609) (human), sequence (Q14145 321-609): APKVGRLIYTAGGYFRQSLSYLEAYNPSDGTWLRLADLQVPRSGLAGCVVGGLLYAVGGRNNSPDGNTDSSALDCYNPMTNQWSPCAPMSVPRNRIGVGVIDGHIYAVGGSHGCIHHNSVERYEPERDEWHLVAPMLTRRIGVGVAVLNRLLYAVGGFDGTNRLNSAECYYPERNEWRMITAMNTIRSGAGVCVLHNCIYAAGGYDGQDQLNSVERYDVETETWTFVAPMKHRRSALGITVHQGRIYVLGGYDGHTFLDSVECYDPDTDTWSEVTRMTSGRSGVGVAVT

Row | Substance | Kd [1] [nM] | dH [1] [kcal/mol] | stoichiometry N [1] | KD [2]
1 | FAC1 peptide (20-mer) | 1100 | -15.1 | – | –
2 | PALB2 peptide (20-mer) | – | -19.3 | 1.01 | –
3 | WTX Kelch-binding region (from UniProt Q5JTC6) WTX pS286 20-mer peptide | – | – | – | weaker; reference 0.25 ± 0.02

Next, values leading:

Row | Kd [1] [nM] | dH [1] [kcal/mol] | stoichiometry N [1] | KD [2] | Substance
4 | 230 | -19.1 | 1.07 | – | PGAM5 peptide (20-mer)
5 | 250 | -18 | 1.04 | – | WTX peptide (20-mer, unphosphorylated)
